For the assay, the target named is T1, MBP (UniProt P0AEX9 27-392 = MBP).
T1 construct: Control without pilin
Briefly: co-precipitation of CD147-Fc with MBP immobilised on staphylococci, immunoblot. A general note: In western blotting, separated proteins are transferred to a membrane and probed.

B1: recombinant human CD147-Fc chimera (Fc fusion)
chain: THGASGAAGTVFTTVEDLGSKILLTCSLNDSATEVTGHRWLKGGVVLKEDALPGQKTEFKVDSDDQWGEYSCVFLPEPMGTANIQLHGPPRVKAVKSSEHINEGETAMLVCKSESVPPVTDWAWYKITDSEDKALMNGSESRFFVSSSQGRSELHIENLNMEADPGQYRCNGTSSKGSDQAIITLRVRSH
notes: Bought from R&D Systems; comprises the Ig domains of CD147 fused to the Fc domain of human IgG1, produced as a disulfide-linked homodimer; also called soluble chimeric CD147-Fc; recombinant soluble form of the extracellular domain of CD147; not shown: Fc domain of human IgG1
As to B1, the binding result is recorded as “no binding (tested: 1 µg of recombinant human CD147-Fc)”.

The record behind these values is patent US20150110806A1 (INSTITUT NATIONAL DE LA SANTE ET DE LA RECHERCHE MEDICALE, published 2015).
